B1: Tumor necrosis factor receptor superfamily member 4 (Mus musculus), P47741 (parent)
chain: MYVWVQQPTALLLLALTLGVTARRLNCVKHTYPSGHKCCRECQPGHGMVSRCDHTRDTLCHPCETGFYNEAVNYDTCKQCTQCNHRSGSELKQNCTPTQDTVCRCRPGTQPRQDSGYKLGVDCVPCPPGHFSPGNNQACKPWTNCTLSGKQTRHPASDSLDAVCEDRSLLATLLWETQRPTFRPTTVQSTTVWPRTSELPSPPTLVTPEGPAFAVLLGLGLGLLAPLTVLLALYLLRKAWRLPNTPKPCWGNSFRTPIQEEHTDAHFTLAKI
partner: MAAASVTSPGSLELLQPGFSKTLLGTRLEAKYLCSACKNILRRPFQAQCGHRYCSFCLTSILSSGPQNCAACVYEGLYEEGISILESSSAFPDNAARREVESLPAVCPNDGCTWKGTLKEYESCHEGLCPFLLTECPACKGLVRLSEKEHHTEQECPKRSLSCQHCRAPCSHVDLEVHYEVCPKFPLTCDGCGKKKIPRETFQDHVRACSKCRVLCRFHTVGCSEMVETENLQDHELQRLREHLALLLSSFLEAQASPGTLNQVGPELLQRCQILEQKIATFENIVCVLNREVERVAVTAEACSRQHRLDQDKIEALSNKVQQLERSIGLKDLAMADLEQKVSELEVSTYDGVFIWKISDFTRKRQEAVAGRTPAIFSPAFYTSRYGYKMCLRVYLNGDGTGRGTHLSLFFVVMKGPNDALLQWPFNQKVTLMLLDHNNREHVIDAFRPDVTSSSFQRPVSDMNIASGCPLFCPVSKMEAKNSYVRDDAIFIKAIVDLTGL
B2: Tumor necrosis factor receptor superfamily member 4 (Mus musculus), P47741 (parent)
chain: B1 chain
partner: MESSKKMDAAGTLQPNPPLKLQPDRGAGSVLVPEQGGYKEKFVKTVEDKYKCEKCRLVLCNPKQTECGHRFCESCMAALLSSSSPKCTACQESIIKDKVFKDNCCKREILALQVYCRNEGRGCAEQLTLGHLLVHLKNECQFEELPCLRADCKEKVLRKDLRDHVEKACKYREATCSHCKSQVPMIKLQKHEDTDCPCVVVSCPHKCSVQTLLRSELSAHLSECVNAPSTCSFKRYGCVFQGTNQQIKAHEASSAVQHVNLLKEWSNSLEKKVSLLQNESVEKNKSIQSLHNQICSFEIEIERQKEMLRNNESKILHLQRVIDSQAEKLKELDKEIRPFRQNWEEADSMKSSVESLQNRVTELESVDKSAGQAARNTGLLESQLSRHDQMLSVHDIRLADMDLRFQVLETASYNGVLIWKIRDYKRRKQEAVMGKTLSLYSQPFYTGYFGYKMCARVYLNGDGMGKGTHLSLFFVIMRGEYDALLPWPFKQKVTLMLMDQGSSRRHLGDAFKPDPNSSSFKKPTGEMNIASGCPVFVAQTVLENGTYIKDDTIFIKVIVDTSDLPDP

Variants of: B1
Conditions: with traf2_mouse Traf2, P39429

Row | Variant | effect of a mutation on the interaction
1 | MYVWVQQPTALLLLALTLGVTARRLNCVKHTYPSGHKCCRECQPGHGMVSRCDHTRDTLCHPCETGFYNEAVNYDTCKQCTQCNHRSGSELKQNCTPTQDTVCRCRPGTQPRQDSGYKLGVDCVPCPPGHFSPGNNQACKPWTNCTLSGKQTRHPASDSLDAVCEDRSLLATLLWETQRPTFRPTTVQSTTVWPRTSELPSPPTLVTPEGPAFAVLLGLGLGLLAPLTVLLALYLLRKAWRLPNTPKPCWGNSFRAAAQEEHTDAHFTLAKI [T256A;P257A;I258A] | disrupting interaction strength
2 | MYVWVQQPTALLLLALTLGVTARRLNCVKHTYPSGHKCCRECQPGHGMVSRCDHTRDTLCHPCETGFYNEAVNYDTCKQCTQCNHRSGSELKQNCTPTQDTVCRCRPGTQPRQDSGYKLGVDCVPCPPGHFSPGNNQACKPWTNCTLSGKQTRHPASDSLDAVCEDRSLLATLLWETQRPTFRPTTVQSTTVWPRTSELPSPPTLVTPEGPAFAVLLGLGLGLLAPLTVLLALYLLRKAWRLPNTPKPCWGNSFRTPIAAAHTDAHFTLAKI [Q259A;E260A;E261A] | disrupting interaction strength
3 | MYVWVQQPTALLLLALTLGVTARRLNCVKHTYPSGHKCCRECQPGHGMVSRCDHTRDTLCHPCETGFYNEAVNYDTCKQCTQCNHRSGSELKQNCTPTQDTVCRCRPGTQPRQDSGYKLGVDCVPCPPGHFSPGNNQACKPWTNCTLSGKQTRHPASDSLDAVCEDRSLLATLLWETQRPTFRPTTVQSTTVWPRTSELPSPPTLVTPEGPAFAVLLGLGLGLLAPLTVLLALYLLRKAWRLPNTPKPCWGNSFRTPIQEEAAAAHFTLAKI [H262A;T263A;D264A] | decreasing interaction strength

Variants of: B2
Conditions: with traf3_mouse Traf3, Q60803

Row | Variant | effect of a mutation on the interaction
4 | MYVWVQQPTALLLLALTLGVTARRLNCVKHTYPSGHKCCRECQPGHGMVSRCDHTRDTLCHPCETGFYNEAVNYDTCKQCTQCNHRSGSELKQNCTPTQDTVCRCRPGTQPRQDSGYKLGVDCVPCPPGHFSPGNNQACKPWTNCTLSGKQTRHPASDSLDAVCEDRSLLATLLWETQRPTFRPTTVQSTTVWPRTSELPSPPTLVTPEGPAFAVLLGLGLGLLAPLTVLLALYLLRKAWRLPNTPKPCWGNSFRAAAQEEHTDAHFTLAKI [T256A;P257A;I258A] | disrupting interaction strength
5 | MYVWVQQPTALLLLALTLGVTARRLNCVKHTYPSGHKCCRECQPGHGMVSRCDHTRDTLCHPCETGFYNEAVNYDTCKQCTQCNHRSGSELKQNCTPTQDTVCRCRPGTQPRQDSGYKLGVDCVPCPPGHFSPGNNQACKPWTNCTLSGKQTRHPASDSLDAVCEDRSLLATLLWETQRPTFRPTTVQSTTVWPRTSELPSPPTLVTPEGPAFAVLLGLGLGLLAPLTVLLALYLLRKAWRLPNTPKPCWGNSFRTPIAAAHTDAHFTLAKI [Q259A;E260A;E261A] | disrupting interaction strength
6 | MYVWVQQPTALLLLALTLGVTARRLNCVKHTYPSGHKCCRECQPGHGMVSRCDHTRDTLCHPCETGFYNEAVNYDTCKQCTQCNHRSGSELKQNCTPTQDTVCRCRPGTQPRQDSGYKLGVDCVPCPPGHFSPGNNQACKPWTNCTLSGKQTRHPASDSLDAVCEDRSLLATLLWETQRPTFRPTTVQSTTVWPRTSELPSPPTLVTPEGPAFAVLLGLGLGLLAPLTVLLALYLLRKAWRLPNTPKPCWGNSFRTPIQEEAAAAHFTLAKI [H262A;T263A;D264A] | decreasing interaction strength

From IntAct's records for PubMed 9418902
